According to article doi:10.1101/2023.12.13.571504 (bioRxiv, 2023):
Substitutions are numbered along the chain they refer to. Numbers in names are those of the source.

B1: msfGFP-GRP8^WT (Arabidopsis thaliana Glycine-Rich RNA-Binding Protein 8 fused to monomeric superfolder GFP) (natural protein, UniProt Q03251 1-169, looked up)
chain: MSEVEYRCFVGGLAWATNDEDLQRTFSQFGDVIDSKIINDRESGRSRGFGFVTFKDEKAMRDAIEEMNGKELDGRVITVNEAQSRGSGGGGGGRGGSGGGYRSGGGGGYSGGGGGGYSGGGGGGYERRSGGYGSGGGGGGRGYGGGGRREGGGYGGGDGGSYGGGGGGW
B2: msfGFP-GRP8^R7A (natural protein, Arabidopsis thaliana, UniProt Q03251 1-169, looked up)
chain: B1 chain with R7A

Target: the molecule itself
Assay: cross-linking

Protein	stoichiometry N	binding result
B1	2	
B2		binds
